One protein from PMC4644993, “The second virial coefficient as a predictor of protein aggregation propensity: A self-interaction chromatography study” (European Journal of Pharmaceutics and Biopharmaceutics, 2015) can be followed below.

This series concerns the molecule itself. The experiment in a line: self-interaction chromatography; the same protein immobilised on Toyopearl particles (surface coverage ~30-40%) and injected (5-15 mg/mL, 10 uL, 0.5 mL/min); b2 from first-moment retention; increasing ionic strength of different sodium salts; 20 mM sodium phosphate pH 7.0 for lactoferrin, catalase and con A, 50 mM sodium acetate pH 4.5 for lysozyme.

B1: catalase from bovine liver (enzyme, UniProt P00432 1-527, looked up)
chain: MADNRDPASDQMKHWKEQRAAQKPDVLTTGGGNPVGDKLNSLTVGPRGPLLVQDVVFTDEMAHFDRERIPERVVHAKGAGAFGYFEVTHDITRYSKAKVFEHIGKRTPIAVRFSTVAGESGSADTVRDPRGFAVKFYTEDGNWDLVGNNTPIFFIRDALLFPSFIHSQKRNPQTHLKDPDMVWDFWSLRPESLHQVSFLFSDRGIPDGHRHMNGYGSHTFKLVNANGEAVYCKFHYKTDQGIKNLSVEDAARLAHEDPDYGLRDLFNAIATGNYPSWTLYIQVMTFSEAEIFPFNPFDLTKVWPHGDYPLIPVGKLVLNRNPVNYFAEVEQLAFDPSNMPPGIEPSPDKMLQGRLFAYPDTHRHRLGPNYLQIPVNCPYRARVANYQRDGPMCMMDNQGGAPNYYPNSFSAPEHQPSALEHRTHFSGDVQRFNSANDDNVTQVRTFYLKVLNEEQRKRLCENIAGHLKDAQLFIQKKAVKNFSDVHPEYGSRIQALLDKYNEEKPKNAVHTYVQHGSHLSAREKANL
notes: catalase from bovine liver, MW 250 kD, pI 5.4; Immobilised copy is coupled to Toyopearl AF-Amino-650M particles with EDC and NHS; source: bought: Sigma Aldrich (C9322)
On to B1, for which the binding result is “binds”.
